According to the DeepSol protein solubility set:

experiment: soluble on expression in E. coli; label from the status in PepcDB or PDB records

Soluble on expression in E. coli, not soluble:
MGSDKIHHHHHHMTKNSETGHISEGGGILTRPDDATIAYRRLEGKTPGVVFLHGFHSDMEGSKALALEAMCQAQGRAFLRFDYFGHGKSSGDVALGTIGRWAADAVAVIGELTKGPQILVGSSLGGWIALLAALEMKDKVAGLVGVAAAPDFTEDLMWQDFTFEQRRTLMETGELELPNCHEPDNPWRIHRSLIEDGRNHLLLRDLIQIHCPVWLIQGQKDEDVPWQTALRLADCLASEQVEIVLVKDGDHRLSRDGDLIRLTNMVAAMLGMIQEL, MGSDKIHHHHHHMTKQLLVLQSDFGISDGAVSAMYGVINSVSKDLQIYDLTHQIPQFNIWEASYRLLQTVTYWPEDTIFVSIVDPGVGSKRRSVVVLTEDGHYIITPDNGTLTHIAHYGTIKEVRLIDEEKNRLPKSGASHTFHGRDIFAYTAARLAAGVINFEDIGPSATPDSIVSLSLSDSYLEGEQAFGTIDIIDRPFGNLWTNIRRTDFLQLGANYGDSIEVLIKHHDRVVYKNFVTYSRSFADLRIGEALIYVNSLDNLGLGINQGSFVDAYSVGTGTSWKVTLKKV, MGSDKIHHHHHHMTLDNHHCVQLVPLFEKLAEQDLTKVEKIVEHKKIKKGEIIISPDKEPLLVIVAQGALKISQLSQSGKEQLLRIIEAGDYEGEGALLGVTNGQLYGQAMIDSTICFLRQSDFETLLTTYPSLSLQLLKLNAKKYLAAEHQAGFLALDDVEARLAHYFLNLSATSDSIYFEIPMKLKELANYIGTSPETISRKIKVFEENKIISRQGRMIKLLDKEKLEDDFA, MGSDKIHHHHHHMTLHKICILGGTGFVGRHLAERLSQKGHAVRILTRNRERHRENLLVLPGVELIEANVHDPVALKKQLAGRDVVINLVGILNERHQGDFDRNHVELPRLVVGACNDLGIPRLLHMSALGASPTGPSAYLRSKGTGEEIVRQSNGNRAEMGRFDDLEEPMPLWSHGLKTTSFRPAVIFGEGDSFFNRFAGLLRRIPFFIPLARSKARMQPVWIEDVVSAYVQSMDDEKTYGQAYDLCGPKVYTLGELVAYTQSLIGTRRVIVPLGDFAGNLQASIMERLPGKVLTRDNLLSLSIDSVCTRNDLAESFQIEATSVESIVPGYLGGKGARAERLAEIRNRRS, MGSDKIHHHHHHMTNAVYTLIVRALSGIVSERAAETLLRAALREQGLTAEGVTAGEMQRVLSGPLLTRLSGVLPPERARAELGNLAAQLQKHYPKAPTLFSSPAATWDETTSTHWEDIDFSADDFEFDDPEYTATPPERQYALGTAAGQEALIQDLGRIPGVQGVMVCRASGEVLRERALSGSRNLSSVIAATALLFQKRALNLMSADMGGQTVCMRPVGAYCVAVVAGPQVNIGRLLAELQQVREAA, MGSDKIHHHHHHMTNLLEASIEQAGYTSRKKVLTDVFLEVRKGELVGLIGANGAGKSTAIKAILGLSEDFKGHIAWNDCSFAYIPEHPSFYEELTLWEHLDLISTLHGIEESEFAHRAQSLLQTFSLDHVKHELPVTFSKGMQQKLMLIQAFLSKPDMYVIDEPFIGLDPISTKRFVDMLKAEKERGAGILMCTHVLDTAEKICDRFYMIEKGSLFLQGTLKDVQDKTGLEGQSLLDCFYKAVQGDRL, MGSDKIHHHHHHMTPADNEIAEQQNFVDFNSILYTPQYAAGCFGLTTRRLMAIEEEHGLDIKRIKRGSSTSRVYTASDLFNIAALRRSLGHLKPIGRQIVASTFVPKGGTAKTTTAVNLAISAQFAGIKTLIIDNDPQGDTSNMLGYDPDLSPDDLVDMNIPSDRLVDGHFGNLLSPLLRMKPFSEKVLADVIKKPFGENGIHLIPADTYLEDLAVALDASNNSDMWYARFIEDANAGKVPGCDLSVYDLIIIDNAPAGSRLTKNSVAASDLLLCPVRMDKFSFRALLRLHEWCARFAKEYSYAPALMAIPTMFIRKRARLLANLQSLNTLFPGQVTEEKIYFSEDYSKSLDDGIPLMLWKRANSQTIDTARLVFGEILQKIRSLAA, MGSDKIHHHHHHMTPEMYADKYREYASAMPTFQKSIFDQNPIYKIASGPDGNKPIERVKWTKDFLKAFSRYRQPGINAMDLHFYNWNIEHESDTPTDFGEDDWYRVINGTRELDQIINQQADLIKEGLQNIPQPESSLDHRLDRIDLVVGEWGNWHRTAFTAKPALKQQVTMRDAISTALMLDILQKNSDKVTMACVAQTINVLNALILTEGDQTILTPNYDVFMMYKAHRGNSALKIQTNQDQKNVYTFASKKDGEIILDVINANLNDQVKLTVELNREIESISKDFLQSDRPTDFNSSDNPDLIRMQQTEVKDFSKGEITLELSPASVNVFHIKTID, MGSDKIHHHHHHMTPSTPTLATRWEPLPPRVVAELLGPSSARWWLSGGVALDHWLGTNTREHDNIDVSTTIADLPQVVQDLPAPFSAWAPSGDGVVPWAEADMDADLQPIRIHDDATGAWVMQVDVEDGTDSLWVYRRDPRLQLPWDRAVIDVDGIPTGAPEVQLVWKALRPRPEDDADKDAVLPELSNEARAWWEHAILTIHPHSSWSIHVRTPFAPGKASWNRTRR, MGSDKIHHHHHHMTQALTKQVIFDEFIDWLPENSEGRYELHDGVIVEMPKPSGKHSNVIGFLIEELFLSIIQIGKRGIWTIPRESIVKPNSKSGYEPDIIVLDQEALSNEPRWERESIIENPASVKLIVEVVSTAVASSRETRPTHCLTNWRDDYYKKRADYVRVASRREEMGIPEYWIVDYAGLGGRAFIGNPKQPTISVNYLIEGEYQVSQFRQGERIQSVTFPELDLTVDQIFQVG, MGSDKIHHHHHHMTQNVIEMKEITKKFGDFVANDHINLTVEKGEIHALLGENGAGKSTLMNMLAGLLEPTDGQIFINGQPVTIDSPSKSSQLGIGMVHQHFMLVEAFTVAENIVLGNETTQNGVLDIKTAAKEIKELSEKYGLSVNPNAKISDISVGAQQRVEILKTLYRGADILIFDEPTAVLTPSEIKELMTIMKSLVKEGKSIILITHKLDEIRAVADKVTVIRRGKSIETVPVAGASSQQLAEMMVGRSVSFRTEKKEANPTDIILSVKDLVVEENRGGVLAVKNLSLDVRAGEIVGIAGIDGNGQSELIQAITGLRKVTSGQIVIKGKDVTKFSSRQITELSVGHVPEDRHRDGLVLDMTMAENLALQTYYKEPLSHKGILNFAKIKEYARQLMTEFDVRGAGEHVLARGFSGGNQQKAIIAREVDRDPDLLIVSQPTRGLDVGAIEYIHKRLIEERDKGKAVLVVSFELDEILNLSDRIAVIHDGKIQGIVKPDQTNKQELGILMAGGKIEKEERDV, MGSDKIHHHHHHMTREYGTGEIFHQMGDRVDALHYVLEGHVVAKAVTPEGVERYVLGFLPGTIFGQSPFFNRAPAETLFVSVGHTVAVALGRDYIYGEVAQRHPSLLLNLLESDAYRHRVFGRHIADATLRDLETRLCRFILHLVTEASDPVPVEQALTDAAAEVHPRTGDEGAEGPADCPARCHSGASALFSHPGLTHEDVARYLGLHRVTVSNLLGGLRRAGVLGQFNRKVIEVCDGAELVARAGMSGDGDRWP, MGSDKIHHHHHHMTSARRQLIDANATPFYHVINRCVRRAFLCGEDKLTGRSYEHRRGWIVDKIKVLSSIFCIDICAYAVMNNHYHLVLKINVEKAKSLSQREIISRWCQITKGHAVATKYMNGDVLIDGEIMLLDALLAEWHERLSSVSWFMRCLNEEIARKANREDECKGAFWEGRFKSQALLDEQALLACMMYVDLNPIRAGVADSLQSSDFTSIQERISLLNLQRDAFTSLKTQVKSVNKLPQIIHQSLAKFDGPTHQSQQTGIPFHFADYLELIDWTGRAIRLDKKGYIDNQRPKLLHELGIASDAWLTSAKEFRRQYSGISGRWDSMCEFKKQHNSGKWCKGKASSQALHP, MGSDKIHHHHHHMTSFNSNELQKLYIAFFGRPCDPAGMNYWLSKSEDKANLIDVAKAFSSQEEYKKSLTSVNSIEFQINQIYLNLFARKADFDSLNTWSLKCKRGELKIYELASMLTIEQSNIEEKIDNISLKDVEVLEKKVQAAQLFTDQISKDICWINAYKPDSIDPWILGKALQVGINYLNKVDSSYHLDKYAVTEILHKMSFEKINTSTKAIIKIRNLSLTIPISFKHDQKLSNLLTKGVLNSIIGGQLVKNKTTTKIEALRNINLTIMNGERVALIGHNGSGKTSFLKVISGIYLPTEGDLDVEVDVYPMLQKSFLTSTDLTGVDAAKAHYLLVNKSLNGFDQFLQDIIEFSGLGEFISLPIKTYSEGMSARLIFSILTSIPHDCLAIDEGFGTGDSDFFERAEKRMKSFMNSSGTLILASHSEHLLKQFCTRGIVFNHGQVVYDGSLDASLNYYHTHDYIHSNDN, MGSDKIHHHHHHMTSHRAEFPIKLRFLFEPARYKILYGGRGGAKSWGVARALLIQAAATPLRILCVREFQNSIVESVHHLLKAQIEAIGLNSFYEVHNNVIRGINGSEFIFAGLHSNVTRIKSFEGVDRVWVEEAQTVSKTSWDTLIPTIRKEGSEIWVTYNPELNTDETHQRFVVNPPAGAVVVKINWNDNPWFPEILRREKDGLKARDPDAYQNVWEGNCRVTLEGAVYAKELRLAQEEGRIRSVPYDEAKPVHTFFDLGWADNTSIWFAQTVGNELRLIDYYSNSQMPIQHYIGVLQNKGYMYGTDWLPHDARARTLATGRSVEEIMLAAGRKVRIVPNLSIHDGINAARTIFPRCYFDEQNCAEGLQSLRHYRFDVDRDSGQFSARPLHDYHSHAADAFRYFAMAIEEDKPAASARGINMKGWRA, MGSDKIHHHHHHMTSPCPQILWNMTRKCNFSCHYCYFPHDNSPVSDSLPVAALLDFLRSRGGEWLVGLTGGEPFIYPYFVDICSAIAAEHRIGIDTNLSVTPVVKRFARHVPPDRVHDIYAALHIEERERRGAVDAFIRNYHTLAGRGFTVKVNYVVHPSLVQRFAADCEFFGRHGIPLTPRPFKGVYEGRRYPEGYGSTAAAIFTQHPEAGRKTVFNFHGVPCHGGHTFLRMEPDGTVLRCPGDKTVLGNVLSGTVQTESGPTPCRMHRCPCQGVEHILPDAAQQDFIEGVRAYVVGDLPAAQRAFTAAHSRAPAMTQAANNAGVAAFAAGDAQAAACCFARAAADDPVTPLYAANLKLARRAAQPSPPSGTENETPELSLAVNYQRTGN, MGSDKIHHHHHHMTSYRIGIDVGGTHTDAVLLDETNQVMAETKAPTTEDVSRGIYQAMRDVIESAQVDRTRIDYAMLGTTHCTNAIVERKRLNTVGIIRIGAPATLAVKPLIGVPDDLRTLLGKHVYIVSGGHEFDGREIASLDEDHLYEIAHEIKGAVDSVAITSVFSPVSDNHEVRAAEIIREILGEAIPISLSKEIGSVGLLERENATILNASVVNVAQATAEGFVAALKEEGIEANVFFGQNDGTLMSVEYAKKYPILTIACGPTNSLRGASFLTGKENAIVVDVGGTTTDIGVLAQSFPRESSLAVEIGGARTNFRMPDLVSIGLGGGTIIRVNETDGTFTIGPESVGYRLPEKGLVFGGDTLTTTDVVVALGRANIGDRSKVAHLDKELLRRIYDRMVEMVEMAVDQMKTSSGDAPVILVGGGSILLPDQLRGASEVMKPEHLGVANAIGAAIAQVSGQIERVFSLDERGREQTLAYAKDLAREEAIKAGADPSDLTIVDVEDVPLAYLPGNATRIRVKAAGPLGSASAEQYEKGNVIP, MGSDKIHHHHHHMTTIHVSDLSKTYGTDTNVPVLSGVSFDLTSPAIHGLIGANGVGKTTLLRILAGQSRCEGVVEVDGQPAFDNPEVMDRCVLMGIDVPLPSTWRGTKLLSFAQHRYPRWDEARCAQLIDAFQVPVDKPYQSLSRGQKSALGIIIAFSATCDITLLDEPYLGLDVANRDLFYRELRAEQARCPRLIILSTHHINEASHVFDSVMVLKKDGVALQGDVESITGRVVELVGPKATIEGFVSHPARRIGEVHTAGGVAKVLAEARAEEWDQLSALGLRTHEVSLERAVMFLECD
